Results published in US20210214461A1.

How the values were obtained:
[1] = target: pre-existing anti-scFv903 antibodies in human serum H21 (human); assay: competition ADA bridging ELISA
[2] = target: pre-existing anti-scFv903 antibodies in human serum H49 (human); assay: competition ADA bridging ELISA
[3] = target: pre-existing anti-scFv903 antibodies in human serum H66 (human); assay: competition ADA bridging ELISA
[4] = target: pre-existing anti-scFv903 antibodies in human serum H125 (human); assay: competition ADA bridging ELISA
[5] = target: pre-existing anti-scFv903 antibodies in human serum H105 (human); assay: competition ADA bridging ELISA
[6] = target: pre-existing anti-scFv903 antibodies in human serum H96 (human); assay: competition ADA bridging ELISA
[7] = target: pre-existing anti-scFv903 antibodies in human serum H8 (human); assay: competition ADA bridging ELISA
[8] = target: pre-existing anti-scFv903 antibodies in human serum H14 (human); assay: competition ADA bridging ELISA
[9] = target: pre-existing anti-scFv903 antibodies in human serum H79 (human); assay: competition ADA bridging ELISA
[10] = target: pre-existing anti-scFv903 antibodies in human serum H15 (human); assay: competition ADA bridging ELISA
[11] = target: pre-existing anti-scFv903 antibodies in human serum H53 (human); assay: competition ADA bridging ELISA
[12] = target: pre-existing anti-scFv903 antibodies in human serum H69 (human); assay: competition ADA bridging ELISA
[13] = target: pre-existing anti-scFv903 antibodies in human serum H29 (human); assay: competition ADA bridging ELISA
[14] = target: pre-existing anti-scFv903 antibodies in human serum H20 (human); assay: competition ADA bridging ELISA
[15] = target: pre-existing anti-scFv903 antibodies in human serum H86 (human); assay: competition ADA bridging ELISA
[16] = target: pre-existing anti-scFv903 antibodies in human serum H40 (human); assay: competition ADA bridging ELISA
[17] = target: pre-existing anti-scFv903 antibodies in human serum H63 (human); assay: competition ADA bridging ELISA
[18] = target: pre-existing anti-scFv903 antibodies in human serum H64 (human); assay: competition ADA bridging ELISA
[19] = target: pre-existing anti-scFv903 antibodies in human serum H19 (human); assay: competition ADA bridging ELISA
[20] = target: pre-existing anti-scFv903 antibodies in human serum H115 (human); assay: competition ADA bridging ELISA
[21] = target: pre-existing anti-scFv903 antibodies in human serum H50 (human); assay: competition ADA bridging ELISA
[22] = target: pre-existing anti-scFv903 antibodies in human serum H80 (human); assay: competition ADA bridging ELISA
[23] = target: pre-existing anti-scFv903 antibodies in human serum H76 (human); assay: competition ADA bridging ELISA
[24] = target: pre-existing anti-scFv903 antibodies in human serum H56 (human); assay: competition ADA bridging ELISA
[25] = target: pre-existing anti-scFv903 antibodies in human serum H54 (human); assay: competition ADA bridging ELISA
[26] = target: pre-existing anti-scFv903 antibodies in human serum H59 (human); assay: competition ADA bridging ELISA
[27] = target: pre-existing anti-scFv903 antibodies in human serum H81 (human); assay: competition ADA bridging ELISA
[28] = target: pre-existing anti-scFv903 antibodies in human serum H55 (human); assay: competition ADA bridging ELISA
[29] = target: pre-existing anti-scFv903 antibodies in human serum H116 (human); assay: competition ADA bridging ELISA
[30] = target: pre-existing anti-scFv903 antibodies in human serum H46 (human); assay: competition ADA bridging ELISA
[31] = target: pre-existing anti-scFv903 antibodies in human serum H135 (human); assay: competition ADA bridging ELISA
[32] = target: pre-existing anti-scFv903 antibodies in human serum H26 (human); assay: competition ADA bridging ELISA
[33] = target: pre-existing anti-scFv903 antibodies in human serum H60 (human); assay: competition ADA bridging ELISA
[34] = target: pre-existing anti-scFv903 antibodies in human serum H3 (human); assay: competition ADA bridging ELISA
[35] = target: pre-existing anti-scFv903 antibodies in human serum H49 (human); assay: competition ADA bridging ELISA, 100 mcg/ml competitor
[36] = target: pre-existing anti-scFv903 antibodies in human serum H66 (human); assay: as above
[37] = target: pre-existing anti-scFv903 antibodies in human serum H14 (human); assay: as above
[38] = target: pre-existing anti-scFv903 antibodies in human serum H53 (human); assay: as above
[39] = target: pre-existing anti-scFv903 antibodies in human serum H20 (human); assay: as above
[40] = target: pre-existing anti-scFv903 antibodies in human serum H40 (human); assay: as above
[41] = target: pre-existing anti-scFv903 antibodies in human serum H19 (human); assay: as above
[42] = target: pre-existing anti-scFv903 antibodies in human serum H115 (human); assay: as above
[43] = target: pre-existing anti-scFv903 antibodies in human serum H50 (human); assay: as above
[44] = target: pre-existing anti-scFv903 antibodies in human serum H56 (human); assay: as above
[45] = target: pre-existing anti-scFv903 antibodies in human serum H55 (human); assay: as above
[46] = target: pre-existing anti-scFv903 antibodies in human serum H135 (human); assay: as above

B1: scFv 791 (scFv)
scFv: MEIVMTQSPSTLSASLGDRVIITCQSSQSVYGNIWMAWYQQKSGKAPKLLIYQASKLASGVPSRFSGSGSGAEFSLTISSLQPDDFATYYCQGNFNTGDRYAFGQGTKLTVLGGGGGSGGGGSGGGGSGGGGSEVQLVESGGGLVQPGGSLRLSCTASGFTISRSYWICWVRQAPGKGLEWVACIYGDNDITPLYANWAKGRFPVSTDTSKNTVYLQMNSLRAEDTAVYYCARLGYADYAYDLWGQGTLVTVSS
signal change in competition ELISA (% reduction in OD) [1]: -85% | signal change in competition ELISA (% reduction in OD) [2]: -81% | signal change in competition ELISA (% reduction in OD) [3]: -96% | signal change in competition ELISA (% reduction in OD) [4]: -97% | signal change in competition ELISA (% reduction in OD) [5]: -97% | signal change in competition ELISA (% reduction in OD) [6]: -79% | signal change in competition ELISA (% reduction in OD) [7]: -91% | signal change in competition ELISA (% reduction in OD) [8]: -96% | signal change in competition ELISA (% reduction in OD) [9]: -97% | signal change in competition ELISA (% reduction in OD) [10]: -90% | signal change in competition ELISA (% reduction in OD) [11]: -35% | signal change in competition ELISA (% reduction in OD) [12]: -75% | signal change in competition ELISA (% reduction in OD) [13]: -79% | signal change in competition ELISA (% reduction in OD) [14]: -96% | signal change in competition ELISA (% reduction in OD) [15]: -87% | signal change in competition ELISA (% reduction in OD) [16]: -95% | signal change in competition ELISA (% reduction in OD) [17]: -20% | signal change in competition ELISA (% reduction in OD) [18]: -96% | signal change in competition ELISA (% reduction in OD) [19]: -84% | signal change in competition ELISA (% reduction in OD) [20]: -95% | signal change in competition ELISA (% reduction in OD) [21]: -89% | signal change in competition ELISA (% reduction in OD) [22]: -85% | signal change in competition ELISA (% reduction in OD) [23]: -96% | signal change in competition ELISA (% reduction in OD) [24]: -15% | signal change in competition ELISA (% reduction in OD) [25]: -92% | signal change in competition ELISA (% reduction in OD) [26]: -96% | signal change in competition ELISA (% reduction in OD) [27]: -94% | signal change in competition ELISA (% reduction in OD) [28]: -96% | signal change in competition ELISA (% reduction in OD) [29]: -97% | signal change in competition ELISA (% reduction in OD) [30]: -77% | signal change in competition ELISA (% reduction in OD) [31]: -95% | signal change in competition ELISA (% reduction in OD) [32]: -97% | signal change in competition ELISA (% reduction in OD) [33]: -95% | signal change in competition ELISA (% reduction in OD) [34]: -85% | % reduction in OD [35]: -81.2% | % reduction in OD [36]: -96.4% | % reduction in OD [37]: -96.5% | % reduction in OD [38]: -34.6% | % reduction in OD [39]: -96.1% | % reduction in OD [40]: -94.6% | % reduction in OD [41]: -84.3% | % reduction in OD [42]: -94.8% | % reduction in OD [43]: -88.5% | % reduction in OD [44]: -15.1% | % reduction in OD [45]: -96% | % reduction in OD [46]: -95.2%
